These results are taken from patent US20260167714A1 (COHERUS BIOSCIENCES, published 2026).

In test [1] the target is T1, recombinant human ILT4 (LILRB2) (human, UniProt Q8N423 22-460).
T1 construct: Bought protein (Acro Biosystems or R&D Systems); also called ILTR4
Description: SPR, Biacore T200, mAb captured on anti-Fc, ILT4 injected, medium resolution, 25 C. The procedure: (§1) Label-free SPR analysis on a Biacore T200 instrument was utilized to measure antibody affinity to ILT4. CM4 sensor chips from Cytiva Inc. were utilized for all medium resolution analyses. Either anti-mouse Fc specific or anti-human Fc specific capture surfaces were prepared using standard amine coupling chemistry. Mouse, Chimera or Humanized mAbs were captured to their respective surfaces and ILT4 was injected across the surfaces from 101 nM to 0.79 nM in a 2-fold serial dilution series at a flow rate of 100 μL/min. The association phase was followed for 90 sec. while the dissociation phase was followed for 1200 sec. due to the medium resolution analysis implemented here. The sensorgrams were double-referenced and fit globally to a 1:1 interaction model with a term included for mass transport, and the equilibrium dissociation constant was calculated as KD=koff/kₒₙ. […] All kinetic experiments were performed at 25° C. in a buffer consisting of Hepes-buffered saline, pH 7.4, with 0.05% polysorbate 20 (HBS-P+) and 100 μg/ml Bovine Serum Albumin (BSA).

In test [2] the target is T2, human ILT4 expressed on cells (human, UniProt Q8N423 22-597).
T2 construct: whole, on cells; also called CHO-S/ILT4 cells; ILT4-CHO cells
Description: flow cytometry, blockade of PE-HLA-G tetramer (5 µg/ml) binding to CHO-S/ILT4 cells, experiment 2. As for the experimental part:
(§2) In the second blocking experiment, the primary antibody dilutions were made by diluting antibody to 15 μg/ml in FACS buffer. Three independent sets of eleven 2.5-fold serial dilutions were then made in FACS buffer from 15 μg/ml to 0.002 μg/ml. Each dilution set was handled independently, and 50 μl from each was added to cells in duplicate. Control wells received FACS buffer with no antibody. Wells were mixed and incubated for 30 minutes at 4 degrees C. Cells were washed twice in FACS buffer.
(§3) In both blocking experiments, phycoerythrin (PE)-conjugated HLA-G tetramer was diluted in FACS buffer to 5 μg/ml and 100 μl per well was added to cells. Cells were incubated at 4 degrees C. for 30 minutes, washed twice in FACS buffer, and resuspended in 250 μl FACS buffer with 0.1 μg/ml propidium iodide.
(§4) Cells were acquired on an Attune flow cytometer, with 5000 propidium iodide-negative cells collected per sample, and MFI was recorded. Relative blocking activity was calculated with the following formula: 100−(Sample MFI−Background MFI)/(Top MFI−Background MFI)*100. Prism software (Graphpad) was used to plot MFI and relative blocking activity for each sample. The blocking potency for each antibody, represented as IC₅₀, was calculated with Prism software.

Test [3] has as its target T2, human ILT4 expressed on cells. Description: flow cytometry blocking assay: ILT4-expressing CHO cells preincubated with antibody, then PE-HLA-G; HLA-G binding MFI falls from about 105000 (no antibody) to near 0. As for the experimental part: as §2, §3, §4
Test [4] deals with T1, recombinant human ILT4 (LILRB2). Description: SPR, Biacore T200, medium resolution; koff held at its limit of 4.27e-5 s^-1. As for the experimental part: as §1
(In general: In SPR one partner is held on a chip, and binding of the other changes the refractive index at the surface.)

The target of test [5] is T2, human ILT4 expressed on cells. Description: cell-based or functional assay.

T2 sequence (Q8N423 22-597): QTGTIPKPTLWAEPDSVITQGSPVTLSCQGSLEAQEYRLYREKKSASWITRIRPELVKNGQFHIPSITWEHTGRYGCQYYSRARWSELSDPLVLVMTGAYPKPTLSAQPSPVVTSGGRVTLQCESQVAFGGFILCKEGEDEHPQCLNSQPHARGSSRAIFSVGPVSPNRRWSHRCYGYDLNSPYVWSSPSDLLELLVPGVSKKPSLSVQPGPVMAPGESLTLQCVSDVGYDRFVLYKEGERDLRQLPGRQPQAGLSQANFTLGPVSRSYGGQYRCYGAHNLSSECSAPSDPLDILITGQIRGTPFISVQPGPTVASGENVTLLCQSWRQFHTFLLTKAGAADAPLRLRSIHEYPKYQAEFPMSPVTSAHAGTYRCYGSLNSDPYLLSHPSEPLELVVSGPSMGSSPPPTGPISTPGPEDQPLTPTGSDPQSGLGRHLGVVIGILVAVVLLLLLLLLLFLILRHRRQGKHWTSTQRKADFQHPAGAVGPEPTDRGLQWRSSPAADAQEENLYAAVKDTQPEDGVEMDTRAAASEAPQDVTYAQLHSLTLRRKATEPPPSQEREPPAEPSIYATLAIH
T1 sequence (Q8N423 other isoform, or with tags, fused parts or gaps limits assumed): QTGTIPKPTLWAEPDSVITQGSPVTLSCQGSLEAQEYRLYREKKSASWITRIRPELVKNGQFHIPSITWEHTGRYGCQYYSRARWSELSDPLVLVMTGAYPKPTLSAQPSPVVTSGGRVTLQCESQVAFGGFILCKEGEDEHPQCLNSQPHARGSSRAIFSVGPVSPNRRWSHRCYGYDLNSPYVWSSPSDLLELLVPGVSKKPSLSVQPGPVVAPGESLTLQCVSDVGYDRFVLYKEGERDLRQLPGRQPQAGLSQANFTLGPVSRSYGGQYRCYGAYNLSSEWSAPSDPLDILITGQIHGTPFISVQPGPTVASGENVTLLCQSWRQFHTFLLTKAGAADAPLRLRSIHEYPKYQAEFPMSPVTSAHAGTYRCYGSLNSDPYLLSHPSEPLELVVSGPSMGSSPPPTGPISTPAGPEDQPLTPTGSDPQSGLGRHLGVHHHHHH

B1: Chimeric 45 (antibody, V domains shown)
VH: EVQLQQSGPELVKPGASVKISCKASGYTFTDYYMNWVKQSHGKSLEWIGDINPNNGGTSYNQKFKGKATLTVDKSSSTAYMELRSLTSEDSAVYYCARGGAELTGTYWYFDVWGTGTTVTVSS
VL: DIQMTQSPASLSISVGETVTITCRASENIYSNLAWYQQKQGKSPQVLVYGATNLADGVPSRFSGSGSGTQYSLKIKSLQSEDFGSYYCQHFWDSPFTFGSGTKLEIK
notes: Chimeric form of L45S4, captured on anti-human Fc
In general, Kd refers to the equilibrium constant for the complex coming apart. Usually koff stands for the rate constant with which the complex falls apart. A word on the kon: it is a measure of how fast the partners come together. B1: in test [1], the Kd is 0.223 nM, the koff was found to be 0.000109 s⁻¹ and the kon stood at 489000 M⁻¹ s⁻¹.

B2: L180S4 (antibody, IgG1, V domains shown)
VH: EVHLQQSGPELVKPGASVKISCKASGYSFIGYFMNWMKQSHGKSLEWIGRINPYNGDIFYNQKFKGKATLTVDKSSTTAHMDLLSLTSEDFAVYYCARGITVAAGSFDVWGTGTTVTVSS
VL: DIVLTQSPASLAVSLGQRATISCRASESVDNYGNTFMHWYQQKPGQPPKLLIYRASNLESGIPARFSGSGSKTDFTLTINPVEADDVATYYCQQSSDHPLTFGAGTKLELS
notes: also called Murine 180; mouse anti-human ILT4 antibody L180S4
The term IC50 denotes the point on the concentration scale where inhibition reaches its midpoint. A low value points to inhibition by little substance. Regarding B2, the IC50 in test [2] was found to be 0.095 µg/mL. Besides, the IC50 in test [3] came to 0.064 µg/mL. Further, in test [4], the Kd was at most 0.099 nM and the koff is at most 4.27e-05 s⁻¹. In test [1], the kon stood at 431000 M⁻¹ s⁻¹. The “IL-6 secretion by LPS-stimulated M2 macrophages (MSD), fold over control” value in test [5] turned out to be 2 fold.

B3: Chimeric 180 (antibody, V domains shown)
VH: EVHLQQSGPELVKPGASVKISCKASGYSFIGYFMNWMKQSHGKSLEWIGRINPYNGDIFYNQKFKGKATLTVDKSSTTAHMDLLSLTSEDFAVYYCARGITVAAGSFDVWGTGTTVTVSS
VL: DIVLTQSPASLAVSLGQRATISCRASESVDNYGNTFMHWYQQKPGQPPKLLIYRASNLESGIPARFSGSGSKTDFTLTINPVEADDVATYYCQQSSDHPLTFGAGTKLELS
notes: Chimeric form of L180S4
In the case of B3, in test [4], the Kd was at most 0.049 nM and the koff is at most 4.27e-05 s⁻¹. Moreover, the kon in test [1] turned out to be 874000 M⁻¹ s⁻¹.

B4: L77S2 (antibody, IgG1, V domains shown)
VH: DVQLQQSGPELVKPGNSVKISCKAAGYSFTGYSVNWVKERHGKSLEWIGRINPYNGDIFNNQKFKGKATLTVDKSSSTAHMELRSLTSEDSAVYYCARGTTVGGAWFAYWGQGTLVTVSA
VL: VIVLTQSPASLAVSLGQRAAISCRASESVDSYGYSFLHWYQQKPGQPPKLLIYLASNLESGIPARFSGSGSGTDFTLTINPVEADDVATYYCQQSNEDLMYTFGGGTKLEIK
notes: also called Murine 77; mouse anti-human ILT4 antibody L77S2
In test [2], B4 displayed an IC50 of 0.103 µg/mL. Moreover, in test [3], the IC50 came out at 0.076 µg/mL. Moreover, in test [4], the Kd was at most 0.111 nM and the koff was at most 4.27e-05 s⁻¹. Moreover, the kon in test [1] was 387000 M⁻¹ s⁻¹. The “IL-6 secretion by LPS-stimulated M2 macrophages (MSD), fold over control” value in test [5] stood at 2 fold.

B5: Chimeric 77 (antibody, V domains shown)
VH: DVQLQQSGPELVKPGNSVKISCKAAGYSFTGYSVNWVKERHGKSLEWIGRINPYNGDIFNNQKFKGKATLTVDKSSSTAHMELRSLTSEDSAVYYCARGTTVGGAWFAYWGQGTLVTVSA
VL: VIVLTQSPASLAVSLGQRAAISCRASESVDSYGYSFLHWYQQKPGQPPKLLIYLASNLESGIPARFSGSGSGTDFTLTINPVEADDVATYYCQQSNEDLMYTFGGGTKLEIK
notes: Chimeric form of L77S2
Consider B5, for which, in test [4], the Kd is at most 0.059 nM and the koff is at most 4.27e-05 s⁻¹. Further, in test [1], the kon was determined as 728000 M⁻¹ s⁻¹.

B6: Chimeric 156 (antibody, V domains shown)
VH: QVQLKQSGAELVRPGASVKLSCRASGYTFTDYYMNWVKQRPGQGLEWIARIYPGVYRTHYNEKFKDKATLTAEKSSSTAYMELSSLTSEDSAVYFCARSGYYGGTYEEDAMDYWGQGTSVTVSS
VL: DIQMTQSPASLSVSVGETVTITCRASENIYSNLAWYQQKQGKSPQLLVYAATSLADGVPSRFRGSGSGTQYSLKISSLQSEDFGNYYCQNFWDTPYTFGGGTKLEIK
notes: Chimeric form of L156S3
Take B6: in test [4], the Kd is at most 0.114 nM and the koff is at most 4.27e-05 s⁻¹. For the same molecule, the kon in test [1] is 373000 M⁻¹ s⁻¹.
